Measurements reported in publication PMC4121272, “Two β-Galactosidases from the Human Isolate Bifidobacterium breve DSM 20213: Molecular Cloning and Expression, Biochemical Characterization and Synthesis of Galacto-Oligosaccharides” (PLoS ONE, 2014).

Assays:
[1] = molecular target: β-galactosidase β-gal I from Bifidobacterium breve DSM 20213 (Bifidobacterium breve DSM 20213); assay: SEC-MALS; Superdex S200 10/300 GL; 20 mM Tris pH 7.5, 150 mM NaCl, 1 mM β-mercaptoethanol, 5 mM EDTA; room temperature; 50 µL injected at 2.5 mg/mL; on-line MALLS and refractive index
[2] = molecular target: β-galactosidase β-gal II from Bifidobacterium breve DSM 20213 (Bifidobacterium breve DSM 20213); assay: as above

| stoichiometry N [1] | stoichiometry N [2] | Substance |
| --- | --- | --- |
| 2 |  | β-galactosidase β-gal I from Bifidobacterium breve DSM 20213 (enzyme) |
|  | 2 | β-galactosidase β-gal II from Bifidobacterium breve DSM 20213 (enzyme) |
